Experimental data from patent US20240352438A1, “MEANS AND METHODS FOR DETOXIFYING OCHRATOXIN A” (DSM Austria GmbH, priority 2021, published 2024).

How the values were obtained:
[1] = OTA detoxification activity assay (specific activity, fluorescence reduction ex/em 390/450 nm); type: biochemical; details: SEQ ID NO: 1 = 100%
Procedure, shortened: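 Recombinant enzyme preparation with 200 ng/mL OTA in 100 mM sodium phosphate, at pH 6.0 and pH 7.5, 37° C. Degradation followed as the fall in fluorescence at ex/em 390/450 nm. Specific activity taken from the initial linear slope; one unit degrades 1 μmol OTA per min at a starting OTA of […].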

[2] = Thermostability assay: residual OTA detoxification activity after 10 min incubation at 45-99° C. (T50); type: physicochemical; details: 0.1 mg/mL protein in 20 mM Tris-HCl pH 7.5, residual OTA detoxification activity relative to 4° C. reference aliquot
Procedure, shortened: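 T50 marks the temperature range at which half the starting OTA-detoxifying activity is lost, versus an unheated 4 °C reference. Samples were 0.1 mg/mL purified protein in 20 mM Tris-HCl pH 7.5, exposed for 10 min to 45, 55, 65, 75, 80, 85, 90, 95 or 99 °C.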

Molecule | Specific OTA detoxification activities in % compared to the enzyme of SEQ ID NO: 1, pH 6.0 [1] [%] | Specific OTA detoxification activities in % compared to the enzyme of SEQ ID NO: 1, pH 7.5 [1] [%] | T50 (temperature at which 50% of the initial activity was maintained) [2]
77 (protein, exemplary polypeptide) MTTRTRILTAFLSLLAANACAADAAPAAPHTVVLRAARMFDGASGKLVDHPQLTIVGNKIVRIAQGDKAEVPAGAEVVDLGDATLLPGFIDAHVHLSGQSSDNWYGDFFDNMMRFPAEQALYGAYYARITLEAGFTSVRDVGSTDWVALGLRNAIDAGKVPGPRMLVSNYAVGSTGGHADQDPIPPHKLPLAGPLQGVCNGPEECRAAVRYQIKYGANVIKFMPSGGVLSLSDPVDAPELSQDEMNAVIGESHAWGRKVAAHAHGDKAAKMAVAAGVDSIEHGSFIEDDTLRAMKAKNVYLVPTISGIAHAEEKIGTFPPVIAEKGRAAAAHLRQTFRHAVQIGVPIALGTDAGVGAHGSNAREFRYMVENGLTPAQALLAGTANAARLLGTFDRVGTLEAGKLADVVAVPGNPIADITVTERPLFVMKDGVVVRRDAVR | 5 | 3 | 65.3-66.9 °C
49 (protein, exemplary polypeptide) MTTRTRILTAFLSLLAANACAADAAPAAPHTVVLRAARMFDGASGKLVDHPQLTIVGNKIVRIAQGDKAEVPAGAEVVDLGDATLLPGFIDAHVHLSGQSSDNWYGDFFDNMMRFPAEQALYGAYYARITLEAGFTSVRDVGSADWVALGLRNAIDAGKVPGPRMLVSNYAVGSTGGHADQDPIPPHKLPLAGPLQGVCNGPEECRAAVRYQIKYGANVIKFMPSGGVLSLSDPVDAPELSQDEMNAVIGESHAWGRKVAAHAHGDKAAKMAVAAGVDSIEHGSFIEDDTLRAMKAKNVYLVPTISAIAHVEEKIGTFPPVIAEKGRAAAAHLRQTFRHAVQIGVPIALGTDAGVGAHGSNAREFRYMVENGLTPAQALLAGTANAARLLGTFDRVGTLEAGKLADVVAVPGNPIADITVTERPLFVMKDGVVVRRDAVR | 76 | 179 | 68-70 °C
80 (protein, exemplary polypeptide) MTTRTRILTAFLSLLAANACAADAAPAAPHTVVLRAARMFDGASGKLVDHPQLTIVGNKIVRIAQGDKAEVPAGAEVVDLGDATLLPGFIDAHVHLSGQSSDNWYGDFFDNMMRFPAEQALYGAYYARITLEAGFTSVRDVGSTDWVALGLRNAIDAGKVPGPRMLVSNYAVGSTGGHADQDPIPPHKLPLAGPLQGVCNGPEECRAAVRYQIKYGANVIKFMPSGGVLSLSDPVDAPELSQDEMNAVIGESHAWGRKVAAHAHGDKAAKMAVAAGVDSIEHGSFIEDDTLRAMKAKNVYLVPTISGIAHVEEKIGTFPPVIAEKGRAAAAHLRQTFRHAVQIGVPIALGTDAGAGAHGSNAREFRYMVENGLTPAQALLAGTANAARLLGTFDRVGTLEAGKLADVVAVPGNPIADITVTERPLFVMKDGVVVRRDAVR | 7 | 3 | 64.0-65.3 °C
48 (protein, exemplary polypeptide) MTTRTRILTAFLSLLAANACAADAAPAAPHTVVLRAARMFDGASGKLVDHPQLTIVGNKIVRIAQGDKAEVPAGAEVVDLGDATLLPGFIDAHVHLSGQSSDNWYGDFADNMMRFPAEQALYGAYYARITLEAGFTSVRDVGSTDWVALGLRNAIDAGKVPGPRMLVSNYAVGSTGGHADQDPIPPHKLPLAGPLQGVCNGPEECRAAVRYQIKYGANVIKFMPSGGVLSLSDPVDAPELSQDEMNAVIGESHAWGRKVAAHAHGDKAAKMAVAAGVDSIEHGSFIEDDTLRAMKAKNVYLVPTISAIAHVEEKIGTFPPVIAEKGRAAAAHLRQTFRHAVQIGVPIALGTDAGVGAHGSNAREFRYMVENGLTPAQALLAGTANAARLLGTFDRVGTLEAGKLADVVAVPGNPIADITVTERPLFVMKDGVVVRRDAVR | 54 | 102 | <63.2 °C
50 (protein, exemplary polypeptide) MTTRTRILTAFLSLLAANACAADAAPAAPHTVVLRAARMFDGASGKLVDHPQLTIVGNKIVRIAQGDKAEVPAGAEVVDLGDATLLPGFIDAHVHLSGQSSDNWYGDFFDNMMRFPAEQALYGAYYARITLEAGFTSVRDVGSTDWVALGLRNAIDAGKVPGPRMLVSNYPVGSTGGHADQDPIPPHKLPLAGPLQGVCNGPEECRAAVRYQIKYGANVIKFMPSGGVLSLSDPVDAPELSQDEMNAVIGESHAWGRKVAAHAHGDKAAKMAVAAGVDSIEHGSFIEDDTLRAMKAKNVYLVPTISAIAHVEEKIGTFPPVIAEKGRAAAAHLRQTFRHAVQIGVPIALGTDAGVGAHGSNAREFRYMVENGLTPAQALLAGTANAARLLGTFDRVGTLEAGKLADVVAVPGNPIADITVTERPLFVMKDGVVVRRDAVR | 81 | 257 | 64 °C
